This note sets out measurements from paper PMC10786891, “Massively parallel profiling of RNA-targeting CRISPR-Cas13d”.

The chains are these.
B1: target 2 MT 5'PFS GAG 3'PFS AUC (mixed)
RNA 1: CACCCGUGCAAAAUUGCAGGGGUCUAAAACCUUCUCCAAAUUGUUUCAUCCU
RNA 2: GGGAAUGGAUCCACAUCUACGAAUUCGAGAGGAUGAAACAAUUUGGAGAAGAUCAGAUCGGAAGAGCACACGU
B2: target 2 MT 5'PFS GUG 3'PFS CAA (mixed)
RNA 1: CACCCGUGCAAAAUUGCAGGGGUCUAAAACCUUCUCCAAAUUGUUUCAUCCU
RNA 2: GGGAAUGGAUCCACAUCUACGAAUUCGUGAGGAUGAAACAAUUUGGAGAAGCAAAGAUCGGAAGAGCACACGU
B3: target 2 MT 5'PFS AUA 3'PFS AGG (mixed)
RNA 1: CACCCGUGCAAAAUUGCAGGGGUCUAAAACCUUCUCCAAAUUGUUUCAUCCU
RNA 2: GGGAAUGGAUCCACAUCUACGAAUUCAUAAGGAUGAAACAAUUUGGAGAAGAGGAGAUCGGAAGAGCACACGU
B4: target 2 MT 5'PFS GCA 3'PFS CAU (mixed)
RNA 1: CACCCGUGCAAAAUUGCAGGGGUCUAAAACCUUCUCCAAAUUGUUUCAUCCU
RNA 2: GGGAAUGGAUCCACAUCUACGAAUUCGCAAGGAUGAAACAAUUUGGAGAAGCAUAGAUCGGAAGAGCACACGU
B5: target 2 MT 5'PFS AUA 3'PFS AGU (mixed)
RNA 1: CACCCGUGCAAAAUUGCAGGGGUCUAAAACCUUCUCCAAAUUGUUUCAUCCU
RNA 2: GGGAAUGGAUCCACAUCUACGAAUUCAUAAGGAUGAAACAAUUUGGAGAAGAGUAGAUCGGAAGAGCACACGU
B6: target 2 MT 5'PFS CUG 3'PFS CGG (mixed)
RNA 1: CACCCGUGCAAAAUUGCAGGGGUCUAAAACCUUCUCCAAAUUGUUUCAUCCU
RNA 2: GGGAAUGGAUCCACAUCUACGAAUUCCUGAGGAUGAAACAAUUUGGAGAAGCGGAGAUCGGAAGAGCACACGU
B7: target 2 MT 5'PFS AGA 3'PFS CUU (mixed)
RNA 1: CACCCGUGCAAAAUUGCAGGGGUCUAAAACCUUCUCCAAAUUGUUUCAUCCU
RNA 2: GGGAAUGGAUCCACAUCUACGAAUUCAGAAGGAUGAAACAAUUUGGAGAAGCUUAGAUCGGAAGAGCACACGU
B8: target 2 MT 5'PFS GCC 3'PFS CAC (mixed)
RNA 1: CACCCGUGCAAAAUUGCAGGGGUCUAAAACCUUCUCCAAAUUGUUUCAUCCU
RNA 2: GGGAAUGGAUCCACAUCUACGAAUUCGCCAGGAUGAAACAAUUUGGAGAAGCACAGAUCGGAAGAGCACACGU
B9: target 2 MT 5'PFS CUG 3'PFS CGU (mixed)
RNA 1: CACCCGUGCAAAAUUGCAGGGGUCUAAAACCUUCUCCAAAUUGUUUCAUCCU
RNA 2: GGGAAUGGAUCCACAUCUACGAAUUCCUGAGGAUGAAACAAUUUGGAGAAGCGUAGAUCGGAAGAGCACACGU
B10: target 2 MT 5'PFS GUC 3'PFS AAC (mixed)
RNA 1: CACCCGUGCAAAAUUGCAGGGGUCUAAAACCUUCUCCAAAUUGUUUCAUCCU
RNA 2: GGGAAUGGAUCCACAUCUACGAAUUCGUCAGGAUGAAACAAUUUGGAGAAGAACAGAUCGGAAGAGCACACGU
B11: target 2 MT 5'PFS GCC 3'PFS CAA (mixed)
RNA 1: CACCCGUGCAAAAUUGCAGGGGUCUAAAACCUUCUCCAAAUUGUUUCAUCCU
RNA 2: GGGAAUGGAUCCACAUCUACGAAUUCGCCAGGAUGAAACAAUUUGGAGAAGCAAAGAUCGGAAGAGCACACGU
B12: target 2 MT 5'PFS GUC 3'PFS AAG (mixed)
RNA 1: CACCCGUGCAAAAUUGCAGGGGUCUAAAACCUUCUCCAAAUUGUUUCAUCCU
RNA 2: GGGAAUGGAUCCACAUCUACGAAUUCGUCAGGAUGAAACAAUUUGGAGAAGAAGAGAUCGGAAGAGCACACGU
B13: target 2 MT 5'PFS GUC 3'PFS AAA (mixed)
RNA 1: CACCCGUGCAAAAUUGCAGGGGUCUAAAACCUUCUCCAAAUUGUUUCAUCCU
RNA 2: GGGAAUGGAUCCACAUCUACGAAUUCGUCAGGAUGAAACAAUUUGGAGAAGAAAAGAUCGGAAGAGCACACGU
B14: target 2 MT 5'PFS CUG 3'PFS CGA (mixed)
RNA 1: CACCCGUGCAAAAUUGCAGGGGUCUAAAACCUUCUCCAAAUUGUUUCAUCCU
RNA 2: GGGAAUGGAUCCACAUCUACGAAUUCCUGAGGAUGAAACAAUUUGGAGAAGCGAAGAUCGGAAGAGCACACGU
B15: target 2 MT 5'PFS UAA 3'PFS CAU (mixed)
RNA 1: CACCCGUGCAAAAUUGCAGGGGUCUAAAACCUUCUCCAAAUUGUUUCAUCCU
RNA 2: GGGAAUGGAUCCACAUCUACGAAUUCUAAAGGAUGAAACAAUUUGGAGAAGCAUAGAUCGGAAGAGCACACGU
B16: target 2 MT 5'PFS AUA 3'PFS AGA (mixed)
RNA 1: CACCCGUGCAAAAUUGCAGGGGUCUAAAACCUUCUCCAAAUUGUUUCAUCCU
RNA 2: GGGAAUGGAUCCACAUCUACGAAUUCAUAAGGAUGAAACAAUUUGGAGAAGAGAAGAUCGGAAGAGCACACGU
B17: target 2 MT 5'PFS AGA 3'PFS CUG (mixed)
RNA 1: CACCCGUGCAAAAUUGCAGGGGUCUAAAACCUUCUCCAAAUUGUUUCAUCCU
RNA 2: GGGAAUGGAUCCACAUCUACGAAUUCAGAAGGAUGAAACAAUUUGGAGAAGCUGAGAUCGGAAGAGCACACGU
B18: target 2 MT 5'PFS GCC 3'PFS CAU (mixed)
RNA 1: CACCCGUGCAAAAUUGCAGGGGUCUAAAACCUUCUCCAAAUUGUUUCAUCCU
RNA 2: GGGAAUGGAUCCACAUCUACGAAUUCGCCAGGAUGAAACAAUUUGGAGAAGCAUAGAUCGGAAGAGCACACGU
B19: target 2 MT 5'PFS UGU 3'PFS AGU (mixed)
RNA 1: CACCCGUGCAAAAUUGCAGGGGUCUAAAACCUUCUCCAAAUUGUUUCAUCCU
RNA 2: GGGAAUGGAUCCACAUCUACGAAUUCUGUAGGAUGAAACAAUUUGGAGAAGAGUAGAUCGGAAGAGCACACGU
B20: target 2 MT 5'PFS AGA 3'PFS CUA (mixed)
RNA 1: CACCCGUGCAAAAUUGCAGGGGUCUAAAACCUUCUCCAAAUUGUUUCAUCCU
RNA 2: GGGAAUGGAUCCACAUCUACGAAUUCAGAAGGAUGAAACAAUUUGGAGAAGCUAAGAUCGGAAGAGCACACGU
B21: target 2 MT 5'PFS GCC 3'PFS CAG (mixed)
RNA 1: CACCCGUGCAAAAUUGCAGGGGUCUAAAACCUUCUCCAAAUUGUUUCAUCCU
RNA 2: GGGAAUGGAUCCACAUCUACGAAUUCGCCAGGAUGAAACAAUUUGGAGAAGCAGAGAUCGGAAGAGCACACGU
B22: target 2 MT 5'PFS UGU 3'PFS AGC (mixed)
RNA 1: CACCCGUGCAAAAUUGCAGGGGUCUAAAACCUUCUCCAAAUUGUUUCAUCCU
RNA 2: GGGAAUGGAUCCACAUCUACGAAUUCUGUAGGAUGAAACAAUUUGGAGAAGAGCAGAUCGGAAGAGCACACGU
B23: target 2 MT 5'PFS AGA 3'PFS CUC (mixed)
RNA 1: CACCCGUGCAAAAUUGCAGGGGUCUAAAACCUUCUCCAAAUUGUUUCAUCCU
RNA 2: GGGAAUGGAUCCACAUCUACGAAUUCAGAAGGAUGAAACAAUUUGGAGAAGCUCAGAUCGGAAGAGCACACGU
B24: target 2 MT 5'PFS GUC 3'PFS AAU (mixed)
RNA 1: CACCCGUGCAAAAUUGCAGGGGUCUAAAACCUUCUCCAAAUUGUUUCAUCCU
RNA 2: GGGAAUGGAUCCACAUCUACGAAUUCGUCAGGAUGAAACAAUUUGGAGAAGAAUAGAUCGGAAGAGCACACGU
B25: target 2 MT 5'PFS CGA 3'PFS UGC (mixed)
RNA 1: CACCCGUGCAAAAUUGCAGGGGUCUAAAACCUUCUCCAAAUUGUUUCAUCCU
RNA 2: GGGAAUGGAUCCACAUCUACGAAUUCCGAAGGAUGAAACAAUUUGGAGAAGUGCAGAUCGGAAGAGCACACGU
B26: target 1 insC 3' of 22,insU 3' of 4 (mixed)
RNA 1: CACCCGUGCAAAAAUGCAGGGGUCUAAAACUGAGCGGAUAACCUCUCUAUGG
RNA 2: GGGAAUGGAUCCACAUCUACGAAUUCGUACCCAUAGAGAGGUUAUCCGCUUCACCGAGAUCGGAAGAGCACACGU
B27: target 1 insU 3' of 20,insA 3' of 17 (mixed)
RNA 1: CACCCGUGCAAAAAUGCAGGGGUCUAAAACUGAGCGGAUAACCUCUCUAUGG
RNA 2: GGGAAUGGAUCCACAUCUACGAAUUCGUACCAUUAGAAGAGGUUAUCCGCUCACCGAGAUCGGAAGAGCACACGU

This series concerns the target T1, EsCas13d, nuclease-dead (Eubacterium siraeum, UniProt B0MS50, R295A;H300A;R849A;H854A).
T1 sequence: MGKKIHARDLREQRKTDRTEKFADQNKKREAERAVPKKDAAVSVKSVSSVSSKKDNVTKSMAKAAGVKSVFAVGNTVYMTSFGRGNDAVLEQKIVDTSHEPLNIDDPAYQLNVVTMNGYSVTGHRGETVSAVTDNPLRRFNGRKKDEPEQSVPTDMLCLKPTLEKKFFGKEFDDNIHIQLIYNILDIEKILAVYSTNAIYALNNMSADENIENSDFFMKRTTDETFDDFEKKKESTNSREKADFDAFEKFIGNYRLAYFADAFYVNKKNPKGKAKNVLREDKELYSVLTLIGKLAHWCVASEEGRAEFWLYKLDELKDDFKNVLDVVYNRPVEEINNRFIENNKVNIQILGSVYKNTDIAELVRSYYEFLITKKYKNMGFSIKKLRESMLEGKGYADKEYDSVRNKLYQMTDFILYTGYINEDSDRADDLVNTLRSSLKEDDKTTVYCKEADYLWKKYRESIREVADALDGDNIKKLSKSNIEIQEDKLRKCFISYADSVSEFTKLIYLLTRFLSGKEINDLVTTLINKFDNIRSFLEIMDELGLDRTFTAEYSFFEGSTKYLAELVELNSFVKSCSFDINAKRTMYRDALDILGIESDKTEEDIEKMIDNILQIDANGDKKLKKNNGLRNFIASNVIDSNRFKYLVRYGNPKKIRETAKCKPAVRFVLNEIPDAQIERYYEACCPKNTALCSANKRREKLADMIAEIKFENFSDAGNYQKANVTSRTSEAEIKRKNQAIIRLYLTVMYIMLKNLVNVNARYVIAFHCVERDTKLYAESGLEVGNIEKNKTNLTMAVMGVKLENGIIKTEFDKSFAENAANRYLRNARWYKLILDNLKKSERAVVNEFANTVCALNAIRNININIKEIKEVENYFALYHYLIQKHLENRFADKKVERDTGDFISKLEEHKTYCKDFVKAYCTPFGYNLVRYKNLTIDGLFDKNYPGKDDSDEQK
Kind of series: crRNA (strand 1, pre-loaded); Mg2+; 40 mM Tris-HCl pH 7.5, 150 mM NaCl, 6 mM MgCl2, 1 mM DTT, 0.1% Tween-20, 0.2 mg/ml BSA; 25 C; 10 min per concentration, then washed. Particulars: tags: His6-TwinStrep-SUMO cleaved; N-terminal SNAP kept (SNAP-Surface 488); label: 3' end held by stalled T7 RNA polymerase.
For orientation: Kd means the equilibrium constant for the complex coming apart. Read a high Kd as lower affinity. In turn, B1 yielded a Kd of 9.9 ± 1.4 nM.

On to B2, for which binding was characterised by a dissociation constant (Kd) of 6.8 ± 0.6 nM.

Take B3: the affinity, expressed as Kd, was 7.6 ± 1.1 nM.

With B4, the Kd was determined as 8.8 ± 1.8 nM.

Regarding B5, the Kd worked out at 26 ± 6 nM.

The molecule B6 returned a Kd of 2.31 ± 0.31 nM.

On to B7, for which the Kd worked out at 8.4 ± 1.2 nM.

For B8, the affinity, expressed as Kd, was 13 ± 1.7 nM.

With B9, the Kd worked out at 3.9 ± 0.6 nM.

In turn, B10 displayed a Kd of 9.7 ± 1.5 nM.

As for B11, the Kd is approximately 27 nM.

B12 returned a Kd of 16.8 ± 3.5 nM.

The molecule B13 showed a Kd of 8.8 ± 1.5 nM.

As to B14, binding was characterised by a dissociation constant (Kd) of 3.4 ± 0.6 nM.

B15 yielded a dissociation constant Kd of 4.9 ± 0.8 nM.

As for B16, the dissociation constant Kd was 6.1 ± 1.1 nM.

As to B17, the affinity, expressed as Kd, was 5.9 ± 1.1 nM.

Regarding B18, the Kd was 14 ± 4 nM.

Turning to B19, the Kd stood at 14.8 ± 2.4 nM.

For B20, the Kd is 7.6 ± 1.4 nM.

The molecule B21 showed a Kd of 9.4 ± 0.8 nM.

B22: the Kd stood at 12.5 ± 2.1 nM.

Regarding B23, the Kd was found to be 11.7 ± 1.9 nM.

In turn, B24 had a Kd of 12.8 ± 2.8 nM.

In turn, B25 registered a Kd of 6.8 ± 1.5 nM.

B26 displayed an equilibrium dissociation constant (Kd) of 15.1 ± 1.6 nM.

For B27, the Kd amounted to 27.3 ± 2.4 nM.
